# Experimental data taken from paper PMC8724738, “Exon‐independent recruitment of SRSF1 is mediated by U1 snRNP stem‐loop 3”.
# Experiments:
# FUS RRM = FUS RRM (UniProt P35637 285-371); assay: NMR; 30 C; NMR/ITC: 10 mM NaPO4 pH 7.0, 50 mM L-Arg, 50 mM L-Glu, 5 mM DTT (TCEP for ITC); NMR 313 K (FUS 30 C), ITC 27 C; single-molecule: 50% nuclear extract, 3.2 mM MgCl2, 50 mM K-glutamate, 20 mM HEPES pH 7.5, 1.5 mM ATP, 30 C; conditions: protein: recombinant; hairpin
# GB1-SRSF1ΔRS = GB1-SRSF1ΔRS (UniProt Q07955 1-197, del198-248); assay: ITC; 27 C; NMR buffer with TCEP; NMR/ITC: 10 mM NaPO4 pH 7.0, 50 mM L-Arg, 50 mM L-Glu, 5 mM DTT (TCEP for ITC); NMR 313 K (FUS 30 C), ITC 27 C; single-molecule: 50% nuclear extract, 3.2 mM MgCl2, 50 mM K-glutamate, 20 mM HEPES pH 7.5, 1.5 mM ATP, 30 C; conditions: protein: recombinant; hairpin
# Sequence of GB1-SRSF1ΔRS (Q07955 1-197, stated change not applied): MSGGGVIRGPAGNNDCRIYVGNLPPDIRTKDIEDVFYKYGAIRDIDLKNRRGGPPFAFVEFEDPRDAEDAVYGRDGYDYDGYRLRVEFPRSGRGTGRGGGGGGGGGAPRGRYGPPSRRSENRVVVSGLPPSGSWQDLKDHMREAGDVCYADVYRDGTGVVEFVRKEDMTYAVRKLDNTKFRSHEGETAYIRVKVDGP
# Sequence of FUS RRM (P35637 285-371): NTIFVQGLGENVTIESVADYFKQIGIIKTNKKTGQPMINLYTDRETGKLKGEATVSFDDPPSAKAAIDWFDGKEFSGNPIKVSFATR
binder,measurement,setting,value
GCGAUUUCCCCAAAUGUGGGAAACUCGC (structured_RNA) [U1 snRNA stem-loop 3 (SL3) wild type],binding result,FUS RRM,binds
same,Kd,GB1-SRSF1ΔRS,10.9 ± 2.8 µM
